From paper PMC5466061

B1: (GGGTTT)5 (structured_DNA)
DNA: GGGTTTGGGTTTGGGTTTGGGTTTGGG
B2: hTert 5-12 (structured_DNA)
DNA: AGGGGGCTGGGCCGGGGACCCGGGAGGGGTCGGGACGGGGCGGGGT
B3: n5M2 (structured_DNA)
DNA: GGGTTTTTTTTTGGGTTTGGGTTTGGG
B4: (GGGTTT)6 (structured_DNA)
DNA: GGGTTTGGGTTTGGGTTTGGGTTTGGGTTTGGGTTT
B5: bcl-2 (structured_DNA)
DNA: AGGGGCGGGCGCGGGAGGAAGGGGGCGGGAGCGGGGCTG
B6: (GGGTTA)6 (structured_DNA)
DNA: GGGTTAGGGTTAGGGTTAGGGTTAGGGTTAGGGTTA
B7: (GGGTTA)8 (structured_DNA)
DNA: TCGAGGGTTAGGGTTAGGGTTAGGGTTAGGGTTAGGGTTAGGGTTAGGGTTAC
B8: n5M3 (structured_DNA)
DNA: GGGTTTGGGTTTTTTTTTGGGTTTGGG
B9: hTert 1-12 (structured_DNA)
DNA: AGGGGAGGGGCTGGGAGGGCCCGGAGGGGGCTGGGCCGGGGACCCGGGAGGGGTCGGGACGGGGCGGGGT
B10: (GGGTTT)4 = 333 (structured_DNA)
DNA: GGGTTTGGGTTTGGGTTTGGG
B11: c-myc (structured_DNA)
DNA: TGGGGAGGGTGGGGAGGGTGGGGAAGG
B12: 111 (structured_DNA)
DNA: GGGTGGGTGGGTGGG
B13: (GGGTTA)4 (structured_DNA)
DNA: GGGTTAGGGTTAGGGTTAGGG
B14: n5M4 (structured_DNA)
DNA: GGGTTTGGGTTTGGGTTTTTTTTTGGG
B15: (GGGTTT)8 (structured_DNA)
DNA: GGGTTTGGGTTTGGGTTTGGGTTTGGGTTTGGGTTTGGGTTTGGGTTT

Target: nucleolin (NCL) (Homo sapiens, UniProt P19338 1-710)
Sequence (P19338 whole entry): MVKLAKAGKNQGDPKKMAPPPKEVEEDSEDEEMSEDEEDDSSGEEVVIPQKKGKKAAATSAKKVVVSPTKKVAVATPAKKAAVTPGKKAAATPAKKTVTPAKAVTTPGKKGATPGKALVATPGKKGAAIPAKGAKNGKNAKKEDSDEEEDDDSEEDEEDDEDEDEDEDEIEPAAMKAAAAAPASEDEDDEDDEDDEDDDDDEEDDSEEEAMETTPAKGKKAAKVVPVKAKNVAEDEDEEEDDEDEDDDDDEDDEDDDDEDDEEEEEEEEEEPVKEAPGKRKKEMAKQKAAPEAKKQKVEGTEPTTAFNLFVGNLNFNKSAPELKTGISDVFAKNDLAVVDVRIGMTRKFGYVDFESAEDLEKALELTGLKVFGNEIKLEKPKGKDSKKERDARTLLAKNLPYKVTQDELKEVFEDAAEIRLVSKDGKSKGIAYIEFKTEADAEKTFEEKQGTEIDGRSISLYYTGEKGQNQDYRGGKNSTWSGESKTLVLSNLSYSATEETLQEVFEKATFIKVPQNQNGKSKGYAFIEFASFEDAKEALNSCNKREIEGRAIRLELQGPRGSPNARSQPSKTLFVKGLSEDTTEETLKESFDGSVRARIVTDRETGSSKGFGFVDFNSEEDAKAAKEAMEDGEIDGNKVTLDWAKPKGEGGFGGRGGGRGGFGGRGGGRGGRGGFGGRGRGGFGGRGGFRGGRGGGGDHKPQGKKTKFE
Test: EMSA

Binding result, binds:
B1, B2, B3, B4, B5, B6, B7, B8, B9, B10, B11, B12, B13, B14, B15
